Reference: patent publication US6153382

Tests used:
[1] = target: HIV-1 Rev (Human immunodeficiency virus 1) (UniProt P04618); test: filter
[2] = target: HIV-1 Rev (Human immunodeficiency virus 1) (UniProt P04618); test: competition; conditions: D1/2 vs labelled RRE; 17 nM rev

## R7 full-length RRE transcript (238 nt)
[1]; 50% RNA bound at 10 nM rev, 43 mM Tris pH 8.0, 50 mM KCl, 4 C
  Kd: 3 nM
[1]; Scatchard high-affinity site, 50 mM KCl
  Kd: 2 nM
[1]; Scatchard high-affinity site, 200 mM KCl
  Kd: 4 nM
[2]
  IC50: 2 nM
